From article doi:10.1101/577536 come the findings set out here.

For this assay, the target named is fusion protein containing the GS120 linker. In words: FRET or BRET.

Regarding V227A MBD2 peptide, the fold shift of the titration midpoint against the WT MBD2 peptide came out at 30 fold.
